From patent publication US6881402 come the findings set out here.

In this assay the target is human Fas (human) (UniProt P25445). Put plainly: cell-based or functional assay.
Sequence of UniProt P25445 (P25445 26-335): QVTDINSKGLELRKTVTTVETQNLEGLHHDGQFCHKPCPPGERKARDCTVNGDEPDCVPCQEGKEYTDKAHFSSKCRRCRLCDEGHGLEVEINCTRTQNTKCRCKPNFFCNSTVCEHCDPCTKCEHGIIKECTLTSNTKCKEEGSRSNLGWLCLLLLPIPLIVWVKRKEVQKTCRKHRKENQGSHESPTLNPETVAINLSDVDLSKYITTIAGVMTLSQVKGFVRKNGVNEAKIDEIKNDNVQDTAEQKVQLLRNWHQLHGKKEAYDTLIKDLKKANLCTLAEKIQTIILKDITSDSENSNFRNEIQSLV

On to “CH-11 agonist mAb to Fas (Panvera, Madison, WI) (antibody)”, for which the apoptotic nuclei (DAPI) in MCF7-Fas cells transfected with pMT2 alone, treated 9 h with CH-11 (500 ng/ml) plus cycloheximide is 62%.
